Assay results published in article PMC11143768, “Integrin-linked kinase-frizzled 7 interaction maintains cancer stem cells to drive platinum resistance in ovarian cancer” (Journal of Experimental & Clinical Cancer Research : CR, 2024).

Target: T1, recombinant human full length Fzd7 (human, UniProt O75084 33-574)
T1 construct: Frizzled 7 (Fzd7), human, recombinant full length; also called full-length recombinant Fzd7; source: recombinant
Assay: co-IP; recombinant human full length Fzd7 mixed in lysis buffer at 1:1 ratio with recombinant human full-length ILK, incubated overnight at 4 °C with anti-Fzd7 Ab; Western blot for ILK and Fzd7
Details: both partners purified

- binding result: binds
B1: recombinant human full-length ILK (enzyme, UniProt Q13418 1-452, looked up)
chain: MDDIFTQCREGNAVAVRLWLDNTENDLNQGDDHGFSPLHWACREGRSAVVEMLIMRGARINVMNRGDDTPLHLAASHGHRDIVQKLLQYKADINAVNEHGNVPLHYACFWGQDQVAEDLVANGALVSICNKYGEMPVDKAKAPLRELLRERAEKMGQNLNRIPYKDTFWKGTTRTRPRNGTLNKHSGIDFKQLNFLTKLNENHSGELWKGRWQGNDIVVKVLKVRDWSTRKSRDFNEECPRLRIFSHPNVLPVLGACQSPPAPHPTLITHWMPYGSLYNVLHEGTNFVVDQSQAVKFALDMARGMAFLHTLEPLIPRHALNSRSVMIDEDMTARISMADVKFSFQCPGRMYAPAWVAPEALQKKPEDTNRRSADMWSFAVLLWELVTREVPFADLSNMEIGMKVALEGLRPTIPPGISPHVCKLMKICMNEDPAKRPKFDMIVPILEKMQDK
notes: Integrin-linked kinase (ILK), human, recombinant full length; also called full-length recombinant ILK; source: recombinant
